Biological target: T1, A33 antigen (Homo sapiens, endogenous on SW1222 and …, UniProt Q99795)
T1 construct: A33 antigen on human colorectal tumour cell lines; also called the antigen recognised by A33; source: endogenous, on SW1222 and Colo205 human colorectal tumour cells
Test: flow cytometry on cells; Scatchard analysis: FITC-labelled antibodies titrated on 2.8 x 10^5 SW1222 cells, 2 h on ice, 350 ul PBS with 5% FCS and 0.1% sodium azide; fluorescence per cell calibrated with standard beads; linear regression
Settings: one partner purified

T1 sequence (Q99795 22-319): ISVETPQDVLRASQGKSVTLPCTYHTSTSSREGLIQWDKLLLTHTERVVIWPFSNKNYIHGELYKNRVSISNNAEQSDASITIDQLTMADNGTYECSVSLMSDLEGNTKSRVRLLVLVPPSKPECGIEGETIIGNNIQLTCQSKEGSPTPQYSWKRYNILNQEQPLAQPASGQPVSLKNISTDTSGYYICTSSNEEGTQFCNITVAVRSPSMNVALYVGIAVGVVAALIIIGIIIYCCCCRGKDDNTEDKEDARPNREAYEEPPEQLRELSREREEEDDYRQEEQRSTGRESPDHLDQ

B1: murine A33 IgG (antibody, V domains shown)
VH: EVKLVESGGGLVKPGGSLKLSCAASGFAFSTYDMSWVRQTPEKRLEWVATISSGGSYTYYLDSVKGRFTISRDSARNTLYLQMSSLRSEDTALYYCAPTTVVPFAYWGQGTLVTVSA
VL: DIVMTQSQKFMSTSVGDRVSITCKASQNVRTVVAWYQQKPGQSPKTLIYLASNRHTGVPDRFTGSGSGTDFTLTISNVQSEDLADYFCLQHWSYPLTFGSGTKLEVK
notes: the scan text reads CAPr at Kabat 92-96, restored to CAPTT from the hA33 line (94-102 are said to be murine); mouse gamma-2a heavy chain constant region ('the murine y-2a of the parent antibody'); mouse light chain constant region; IgG2a; also called mA33; mouse A33; copies: 2 + 2
Kd: 1.28 nM

Source: paper PMC2034099, “Preparation and preclinical evaluation of humanised A33 immunoconjugates for radioimmunotherapy” (British Journal of Cancer, 1995)
